Laboratory results taken from US9518268B2, “Drought tolerant transgenic plants and method of making same” (PURDUE RESEARCH FOUNDATION, priority 2013, dated 2016).

T1: ABI2 (Arabidopsis thaliana, UniProt O04719)
T1 construct: GST (N, cleaved yes); made in house; host or cells: Escherichia coli BL21 (DE3.0)
T1 sequence (O04719 1-423): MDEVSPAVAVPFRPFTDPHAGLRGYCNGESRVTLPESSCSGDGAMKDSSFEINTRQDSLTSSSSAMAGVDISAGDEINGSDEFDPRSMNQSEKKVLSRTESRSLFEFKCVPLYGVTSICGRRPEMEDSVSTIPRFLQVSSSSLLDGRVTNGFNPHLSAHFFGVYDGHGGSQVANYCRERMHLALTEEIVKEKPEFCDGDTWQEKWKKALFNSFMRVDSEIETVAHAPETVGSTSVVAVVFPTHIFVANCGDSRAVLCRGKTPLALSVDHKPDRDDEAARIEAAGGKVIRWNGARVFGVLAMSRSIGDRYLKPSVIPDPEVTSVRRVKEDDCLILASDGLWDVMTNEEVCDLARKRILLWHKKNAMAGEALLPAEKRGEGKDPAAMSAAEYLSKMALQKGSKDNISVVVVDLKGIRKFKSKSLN

T2: ABI1 (Arabidopsis thaliana, UniProt P49597)
T2 construct: GST (N, cleaved yes); made in house; host or cells: Escherichia coli BL21 (DE3.0)
T2 sequence (P49597 1-434): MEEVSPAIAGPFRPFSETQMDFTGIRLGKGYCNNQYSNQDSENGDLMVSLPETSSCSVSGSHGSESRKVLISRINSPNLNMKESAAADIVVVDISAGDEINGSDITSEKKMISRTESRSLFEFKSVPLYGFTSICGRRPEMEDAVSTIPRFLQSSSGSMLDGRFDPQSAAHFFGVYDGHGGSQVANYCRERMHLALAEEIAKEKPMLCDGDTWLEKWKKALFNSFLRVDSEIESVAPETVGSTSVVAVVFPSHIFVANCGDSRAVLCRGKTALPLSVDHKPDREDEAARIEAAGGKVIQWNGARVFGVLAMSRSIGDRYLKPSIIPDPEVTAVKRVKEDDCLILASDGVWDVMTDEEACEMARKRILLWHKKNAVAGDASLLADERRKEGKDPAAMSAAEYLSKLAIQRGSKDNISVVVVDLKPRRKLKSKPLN

B1: PYL13: Arabidopsis thaliana PYR/PYL/RCAR family protein PYL13, SEQ ID NO: 1 (protein, listed as Arabidopsis thaliana)
chain: MESSKQKRCRSSVVETIEAPLPLVWSILRSFDKPQAYQRFVKSCTMRSGGGGGKGGEGKGSVRDVTLVSGFPADFSTERLEELDDESHVMVVSIIGGNHRLVNYKSKTKVVASPEDMAKKTVVVESYVVDVPEGTSEEDTIFFVDNIIRYNLTSLAKLTKKMMK

What was measured:
ABI1 [1] = test: Phosphatase activity assay (pNPP) with purified PP2Cs and PYLs; type: biochemical, Arabidopsis thaliana; settings: in the presence of 10 μM ABA; ABI1 and PYLs 0.3 μM
Protocol: (§1) The inhibition by PYL13 is ABA-independent, whereas the inhibition by PYR1 and PYL2 is ABA-induced (FIG. 4B). […] The phosphatase activities of PP2CA, ABI1, and ABI2 were measured in the absence or presence of ABA (1.25 μM), and with or without PYLs. The concentration of PP2Cs and PYLs was 0.3 μM. The A405 value of reaction without PP2C was set as 0% and that of the reaction with PP2C but without ABA and PYLs was set as 100%. Error bars indicate s.e.m. (n=6 for PP2CA and ABI2, and n=3 for ABI1).
(§2) To test the functional significance of potential heterodimer formation between PYL13 and other PYLs, the abilities of PYL1 and PYL2 and the protein complexes PYL13-PYL1 and PYL13-PYL2 to inhibit the phosphatase activity of ABI1 were compared using purified recombinant proteins and the synthetic phosphatase substrate pNPP. […] The phosphatase activity of ABI1 was measured (using pNPP) in the absence or presence of 10 μM ABA, with or without PYLs, and with PYL13-PYL dimers. The concentration of ABI1 and PYLs was 0.3 μM. The A405 value of reaction without ABI1 was set as 0% and that of the reaction with ABI1 but without ABA and PYLs was set as 100%. Error bars indicate s.e.m. (n=6). In the presence of 10 μM ABA, ABI1 phosphatase activity was reduced to 67±6% by PYL1 but only to 88±8% by PYL13-PYL1. In the presence of 10 μM ABA, ABI1 phosphatase activity was reduced to 50±3% by PYL2 but only to 78±10% by PYL13-PYL2.
(§3) Phosphatase activity was measured using the colorimetric substrate p-nitrophenyl phosphate (pNPP, SIGMA). Reactions were performed in a reaction buffer containing 50 mM Tris-HCl, pH 7.5, 25 mM Mg(OAc)2, 2 mM MnCl2, 0.5 mM EGTA, 0.5% β-mercaptoethanol, and 0.5% BSA. ABA and PYLs were added as indicated. The concentration of PP2Cs and PYLs was 0.3 μM. Reactions were initiated by the addition of pNPP to a final concentration of 50 mM. The hydrolysis of pNPP was measured by following the absorbance at 405 nm (A405). Because His-PYL13 is difficult to purify, is prone to degradation, and rapidly loses activity, newly purified PYL13 was used for the phosphatase activity assay.

ABI2 = biological target: T1, ABI2; test: as above; type: biochemical; settings: PP2Cs and PYLs 0.3 μM
Protocol: as §1, §3

ABI1 [2] = biological target: T2, ABI1; test: as above; type: biochemical; settings: PP2Cs and PYLs 0.3 μM
Protocol: as §1, §2, §3

clade A PP2Cs = test: Yeast two-hybrid assay of PYL13 with clade A PP2Cs; type: binding, Arabidopsis; settings: ABA-independent
Protocol: To investigate how PYL13 may function in plants, the interaction between PYL13 and clade A PP2Cs in yeast two-hybrid assays was examined, as shown in FIG. 3. […] PYL13 binds strongly with ABI1, ABI2, PP2CA, and HAI2 but weakly with HAB1 and HAI1 (FIG. 3A). […] PYL13 fused to the GAL4-DNA-binding domain (BD) was used as […], and PP2Cs fused to the GAL4-activating domain (AD) were used as baits. Interaction was determined by growth assay on media lacking His and His/Ade in the presence and absence of ABA. Dilutions (10^−1, 10^−2, and 10^−3) of saturated cultures were spotted onto the plates, which were photographed after 5 days.

Row | Molecule | ABI1 phosphatase activity reduced to (ABI1 [1]) | ABI2 phosphatase activity reduced to (ABI2; with 1.25 μM ABA) | ABI2 phosphatase activity reduced to (ABI2; without ABA) | ABI1 phosphatase activity reduced to (ABI1 [2]; with 1.25 μM ABA) | ABI1 phosphatase activity reduced to (ABI1 [2]; without ABA) | binding in yeast two-hybrid assay (clade A PP2Cs; with ABI1, ABI2, PP2CA, and HAI2) | binding in yeast two-hybrid assay (clade A PP2Cs; with HAB1 and HAI1)
1 | PYL2: Arabidopsis thaliana PYL family ABA receptor protein PYL2, AT2G26040 | 50±3% | – | – | – | – | – | –
2 | B1 | – | 93±6% | 89±8% | 75±3% | 75±3% | strongly | weakly
